Measurements from US20120316071A1.

Tests used:
[1] = molecular target: rHuman P-Cadherin/Fc Chimera, CF (R&D Systems Cat#861-PC) (human) (UniProt P22223); test: MSD multispot ECL, antigen spotted, Fab […]; blank spot 234
[2] = molecular target: rHuman P-Cadherin/Fc Chimera, CF (R&D Systems Cat#861-PC) (human) (UniProt P22223); test: MSD multispot ECL, antigen spotted, Fab 0.1 nM; blank spot 201
[3] = molecular target: rHuman P-Cadherin/Fc Chimera, CF (R&D Systems Cat#861-PC) (human) (UniProt P22223); test: MSD multispot ECL, antigen spotted, Fab 0.6 nM; blank spot 226
[4] = molecular target: rHuman P-Cadherin/Fc Chimera, CF (R&D Systems Cat#861-PC) (human) (UniProt P22223); test: MSD multispot ECL, antigen spotted, Fab 9.3 nM; blank spot 287
[5] = molecular target: rHuman P-Cadherin/Fc Chimera, CF (R&D Systems Cat#861-PC) (human) (UniProt P22223); test: MSD multispot ECL, antigen spotted, Fab 2383 nM; blank spot 344
[6] = molecular target: rHuman P-Cadherin/Fc Chimera, CF (R&D Systems Cat#861-PC) (human) (UniProt P22223); test: MSD multispot ECL, antigen spotted, Fab 37.2 nM; blank spot 199
[7] = molecular target: rHuman P-Cadherin/Fc Chimera, CF (R&D Systems Cat#861-PC) (human) (UniProt P22223); test: MSD multispot ECL, antigen spotted, Fab 148.9 nM; blank spot 218
[8] = molecular target: rHuman P-Cadherin/Fc Chimera, CF (R&D Systems Cat#861-PC) (human) (UniProt P22223); test: MSD multispot ECL, antigen spotted, Fab 595.8 nM; blank spot 285

ECL signal [1]: 401 ECL signal
ECL signal [2]: 235 ECL signal
ECL signal [3]: 321 ECL signal
ECL signal [4]: 452 ECL signal
ECL signal [5]: 728 ECL signal
ECL signal [6]: 649 ECL signal
ECL signal [7]: 687 ECL signal
ECL signal [8]: 617 ECL signal
Substance: Fab VH1-46_IGHD6-6*01_IGHJ1*01 & L6_IGKJ1*01
